Experimental data: patent publication US20050245441A1

Target: rat GIP receptor (rat) (UniProt P43219)
Assay: cell-based or functional assay

Chain of UniProt P43219 (P43219 19-455): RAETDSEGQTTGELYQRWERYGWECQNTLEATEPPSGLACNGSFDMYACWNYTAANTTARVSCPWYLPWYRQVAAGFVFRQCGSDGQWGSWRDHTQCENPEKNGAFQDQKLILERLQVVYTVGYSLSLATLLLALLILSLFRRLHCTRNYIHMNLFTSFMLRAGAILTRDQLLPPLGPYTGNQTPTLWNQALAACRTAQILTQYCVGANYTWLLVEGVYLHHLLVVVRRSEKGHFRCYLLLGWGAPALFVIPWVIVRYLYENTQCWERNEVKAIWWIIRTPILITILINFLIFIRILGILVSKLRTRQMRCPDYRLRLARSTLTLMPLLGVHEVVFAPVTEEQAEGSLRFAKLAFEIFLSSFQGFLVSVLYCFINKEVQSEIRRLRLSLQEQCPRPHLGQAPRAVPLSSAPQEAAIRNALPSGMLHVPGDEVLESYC

cell proliferation (CyQUANT DNA content) of cultured adult hippocampal progenitor cells, 1 nM GIP, 48 h (% increase relative to control): 74.5 | methyl-[3H]-thymidin incorporation in cultured adult hippocampal progenitor cells, 1 nM GIP, 24 h (% increase compared to control): 32.4
Substance: synthetic porcine GIP (Sigma) (from UniProt P01281 1-42) (peptide)
